PMC3258140 (Nucleic Acids Research, 2011)

Molecular target: the molecule itself
Assay: crystal structure

B1: Thermotoga maritima Mre11^(H94Q, F291S) (residues L7M-385), nuclease deficient (enzyme)
chain: MKILHTSDWHLGVTSWTSSRPVDRREELKKALDKVVEEAEKREVDLILLTGDLLHSRNNPSVVALHDLLDYLKRMMRTAPVVVLPGNQDWKGLKLFGNFVTSISSDITFVMSFEPVDVEAKRGQKVRILPFPYPDESEALRKNEGDFRFFLESRLNKLYEEALKKEDFAIFMGHFTVEGLAGYAGIEQGREIIINRALIPSVVDYAALGHIHSFREIQKQPLTIYPGSLIRIDFGEEADEKGAVFVELKRGEPPRYERIDASPLPLKTLYYKKIDTSALKSIRDSCRNFPGYVRVVYEEDSGILPDLMGEIDNLVKIERKSRREIEEVLRESPEEFKEELDKLDYFELFKEYLKKREENHEKLLKILDELLDEVKKSEA
binding result: binds
